System: Escherichia coli TOP10
Test: shrunken log2 fold change of peptide-encoding DNA abundance (4.5 h post-induction vs induction); higher = less antimicrobial activity (less host growth inhibition)
Settings: time post-induction: 4.5 h; library: site-saturation at positions 5, 18, 19, 20
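Further: peptides expressed intracellularly from a pBAD plasmid library in pooled LB shake-flask culture, induced with 0.3% L-arabinose, DNA abundance read by NGS, three biological replicates, DESeq2 with apeglm shrinkage.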

Sequence | shrunken log2 fold change
RRIRQRPPRLPRPRPRPKAPPRP | 0.653
RRIRRRPPRLPRPRPRPEYAPRP | 0.0407
RRIRNRPPRLPRPRPRPKVAPRP | 0.0368
RRIRERPPRLPRPRPRPTADPRP | 0.0264
RRIRWRPPRLPRPRPRPDYNPRP | -0.288
RRIRCRPPRLPRPRPRPCGMPRP | 0.119
RRIRARPPRLPRPRPRPHQPPRP | -0.115
RRIRARPPRLPRPRPRPAHNPRP | 0.155
RRIRDRPPRLPRPRPRPFQKPRP | 0.158
RRIRGRPPRLPRPRPRPSCKPRP | 0.319
RRIRLRPPRLPRPRPRPVNAPRP | 0.0227
RRIRNRPPRLPRPRPRPLICPRP | -0.771
RRIRARPPRLPRPRPRPFWGPRP | 0.0148
RRIRLRPPRLPRPRPRPEGFPRP | 0.604
RRIRRRPPRLPRPRPRPPRGPRP | 0.911
RRIRLRPPRLPRPRPRPTQCPRP | 0.0455
RRIRLRPPRLPRPRPRPYIFPRP | -0.549
RRIRGRPPRLPRPRPRPAVCPRP | 0.938
RRIRGRPPRLPRPRPRPTIYPRP | 0.365
RRIRKRPPRLPRPRPRPNCMPRP | -0.0663
RRIRTRPPRLPRPRPRPQDKPRP | -0.658
RRIRHRPPRLPRPRPRPMKGPRP | 0.081
RRIRYRPPRLPRPRPRPWPTPRP | -0.426

Sequence | shrunken log2 fold change
RRIRCRPPRLPRPRPRPPGLPRP | 0.72
RRIRQRPPRLPRPRPRPMDSPRP | -0.01
RRIRCRPPRLPRPRPRPRNTPRP | 0.855
RRIRYRPPRLPRPRPRPDTPPRP | 0.0497
RRIRRRPPRLPRPRPRPYAWPRP | 0.157
RRIRDRPPRLPRPRPRPSWGPRP | 0.0384
RRIRQRPPRLPRPRPRPYFFPRP | -0.706
RRIRSRPPRLPRPRPRPINHPRP | -0.662
RRIRKRPPRLPRPRPRPYRFPRP | -0.244
RRIRIRPPRLPRPRPRPGGYPRP | -0.16
RRIRGRPPRLPRPRPRPSTWPRP | 0.22
RRIRMRPPRLPRPRPRPKTLPRP | 0.687
RRIRHRPPRLPRPRPRPFDTPRP | -0.178
RRIRARPPRLPRPRPRPRIDPRP | 0.74
RRIRHRPPRLPRPRPRPLYEPRP | -0.211
RRIRDRPPRLPRPRPRPIMFPRP | 0.0387
RRIRTRPPRLPRPRPRPARSPRP | 0.0134
RRIRVRPPRLPRPRPRPWFNPRP | -0.437
RRIRKRPPRLPRPRPRPYWPPRP | -0.000778
RRIRNRPPRLPRPRPRPKVFPRP | 0.0215
RRIRARPPRLPRPRPRPLYQPRP | 0.141
RRIRCRPPRLPRPRPRPSTKPRP | -0.277
RRIRVRPPRLPRPRPRPAMIPRP | -0.07

Sequence | shrunken log2 fold change
RRIRNRPPRLPRPRPRPNYEPRP | -0.21
RRIRMRPPRLPRPRPRPPAVPRP | 1.44
RRIRFRPPRLPRPRPRPYFVPRP | -0.59
RRIRFRPPRLPRPRPRPRDCPRP | 2.96
RRIRGRPPRLPRPRPRPIPAPRP | 0.913
RRIRLRPPRLPRPRPRPWIRPRP | -0.0231
RRIRRRPPRLPRPRPRPCCHPRP | -0.345
RRIRGRPPRLPRPRPRPWLGPRP | 0.245
RRIRNRPPRLPRPRPRPGHPPRP | -0.0813
RRIRLRPPRLPRPRPRPMMTPRP | -0.042
RRIRVRPPRLPRPRPRPHFEPRP | 0.193
RRIRNRPPRLPRPRPRPPTLPRP | -0.204
RRIRSRPPRLPRPRPRPMIFPRP | -0.325
RRIRTRPPRLPRPRPRPNVPPRP | -0.0447
RRIRKRPPRLPRPRPRPYPVPRP | -0.801
RRIRPRPPRLPRPRPRPCWPPRP | 0.144
RRIRPRPPRLPRPRPRPILNPRP | -0.339
RRIRFRPPRLPRPRPRPPIVPRP | -0.126
RRIRTRPPRLPRPRPRPKWYPRP | -0.468
RRIRCRPPRLPRPRPRPKFYPRP | -0.309
RRIRIRPPRLPRPRPRPNRAPRP | 1.1
RRIRARPPRLPRPRPRPWMFPRP | -0.0244
RRIRHRPPRLPRPRPRPTHPPRP | 0.155

Sequence | shrunken log2 fold change
RRIRERPPRLPRPRPRPEERPRP | 0.0375
RRIRQRPPRLPRPRPRPKYQPRP | -0.369
RRIRCRPPRLPRPRPRPDPSPRP | -0.0265
RRIRRRPPRLPRPRPRPIQIPRP | -0.00118
RRIRKRPPRLPRPRPRPRTKPRP | 1.08
RRIRIRPPRLPRPRPRPRCSPRP | -0.137
RRIRIRPPRLPRPRPRPCREPRP | -0.0225
RRIRYRPPRLPRPRPRPMKWPRP | 0.00957
RRIRHRPPRLPRPRPRPSFHPRP | -0.495
RRIRDRPPRLPRPRPRPSCSPRP | -0.253
RRIRFRPPRLPRPRPRPYDSPRP | -0.924
RRIRSRPPRLPRPRPRPHSFPRP | 0.176
RRIRKRPPRLPRPRPRPYIEPRP | -0.127
RRIRRRPPRLPRPRPRPLWIPRP | -0.22
RRIRTRPPRLPRPRPRPYNWPRP | -0.143
RRIRWRPPRLPRPRPRPYLHPRP | -0.639
RRIRGRPPRLPRPRPRPIKTPRP | 0.143
RRIRYRPPRLPRPRPRPNWGPRP | -0.0851
RRIRQRPPRLPRPRPRPMEYPRP | -0.479
RRIRQRPPRLPRPRPRPRFSPRP | 0.0453
RRIRTRPPRLPRPRPRPDFHPRP | -0.336
RRIRFRPPRLPRPRPRPQPKPRP | 0.666
